Measured values taken from article PMC3958310.

Biological target: DENV1 envelope (E) protein, strain Western Pacific 74, on the virus surface (dengue virus serotype 1, strain Western Pacific 74)

B1: Fab fragment of HMAb 1F4 (Fab, V domains shown)
VH: QVQLVESGGGVVQPGRSLRLSCAASGFTFSAYGMHWVRQAPGKGLEWVAIIWYDGSNKYYADSVKGRFTISRDNSKNTLHLQMNSLRAEDTAIYYCARDKNPGTKPYYHYGMDVWGQGTTVTVSS
VL: QSVLTQPPSVSEAPRQRVTISCSGSSSNIGNNAVNWYQQFPGKAPKLLIYYDDLLPSGVSDRFSGSKSGTSASLAISGLQSEDEAYYYCAAWDDSLIGVVFGGGTKLTVL
B1 was tested, and the neutralisation of DENV1 (Western Pacific 74) in U937 cells expressing DC-SIGN, flow cytometry, Neut50 was 0.11 µg/mL.
